“Also recorded” adds a separate entry of the source. Like-named read-outs stand apart in the source and are kept apart here.
Assays:
[1] = biological target: T1, Cathepsin L (CatL) (Homo sapiens, UniProt P07711); assay: Protease inhibition assay, fluorogenic substrate cleavage, cathepsin L; assay type: biochemical; conditions: excess of serpin over protease, 2 min incubation, substrate Z-FR-AMC
T1 construct: gift: Dr Matej Vizovišek, Jozef Stefan Institute, Slovenia
Description: By monitoring the linear rate of cleavage of fluorogenic substrates, protease specificity of purified proteins was assessed. CatL was gifted by Dr Matej Vizovišek, Jozef Stefan Institute, Slovenia. TMPRSS2 was obtained from Cusabio Technology and furin from BioLegend.
Proteases were incubated with a 1:5 molar excess of serpin and residual activity was determined by cleavage of fluorescent substrates. All assays were carried out at room temperature in 96-well plates in a total volume of 100 μL. Residual proteolytic activity was measured using a SpectraMax M3 Microplate Reader (Molecular Devices, Inc), using the appropriate buffer and synthetic fluorogenic peptide substrate: Cathepsin L, Z-FR-AMC (10 μM), 50 mM Na-Acetate, 100 mM NaCl, 1 mM EDTA, pH 5.5; Chymotrypsin, Z-AAPF-AMC (5 μM), PBS, 1 mg/ml BSA; Elastase, Met-O-Suc-AAPV-AMC (10 μM), 50 mM Tris, 120 mM NaCl, pH 8.0, 1 mg/ml BSA; Furin, Boc-RVRR-AMC (50 μM) 20 mM Tris, 1 mM CaCl2), 0.5% Brij-35, pH 9; TMPRSS2, Boc-QAR-AMC (80 μM), PBS; Trypsin, Z-FR-AMC (10 μM), 50 mM Tris, 0.2 mM DTT, 1 mg/ml BSA. The excitation and emission wavelengths used were 380 nm and 460 nm respectively. All assays were performed in triplicate.

[2] = tested on: SARS-CoV-2 Spike pseudoparticles; assay type: cell-based
[3] = tested on: Omicron BA.5 SARS-CoV-2; assay type: cell-based
[4] = biological target: T2, TMPRSS2 (Homo sapiens, UniProt O15393); assay type: biochemical; set-up: purchased Cusabio Technology
T2 sequence (O15393 whole entry): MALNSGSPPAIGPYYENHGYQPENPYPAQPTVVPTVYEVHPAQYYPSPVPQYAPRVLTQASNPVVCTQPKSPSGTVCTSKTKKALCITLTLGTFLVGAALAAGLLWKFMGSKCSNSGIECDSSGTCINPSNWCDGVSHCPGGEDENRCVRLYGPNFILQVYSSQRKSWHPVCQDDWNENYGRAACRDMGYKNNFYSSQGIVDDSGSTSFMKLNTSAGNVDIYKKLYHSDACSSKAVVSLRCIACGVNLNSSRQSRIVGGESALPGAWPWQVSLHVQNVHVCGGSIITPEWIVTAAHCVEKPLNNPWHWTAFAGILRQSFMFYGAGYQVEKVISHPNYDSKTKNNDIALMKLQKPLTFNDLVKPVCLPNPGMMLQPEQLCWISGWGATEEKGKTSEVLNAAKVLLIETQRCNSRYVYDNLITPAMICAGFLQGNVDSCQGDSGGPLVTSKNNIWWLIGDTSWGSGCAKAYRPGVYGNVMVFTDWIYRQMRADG

[5] = biological target: T2, TMPRSS2; assay: Kinetic analysis of TMPRSS2 inhibition under pseudo first-order conditions; assay type: biochemical; set-up: purchased Cusabio Technology; conditions: room temperature, TMPRSS2 0.1 μM
Description: For kinetic analysis of TMPRSS2 inhibition, second order inhibition rate constants were determined under pseudo first-order conditions using a range of serpin concentrations, and with TMPRSS2 buffer and substrate detailed above. Reactions were performed at room temperature and residual activity was determined at intervals over a 10 min incubation with a molar excess of serpin over protease. Concentration ranges were 0.12 to 0.44 μM for B3-TMP and 1.0 to 4 μM for A1AT. The apparent first order rate constant kobs for each concentration was calculated from the slope of the natural log of residual activity over time (−kobs). These values were plotted against inhibitor concentration and linear regression analysis of this plot gave the second order inhibition rate constant k2, with standard error determined.

T1 sequence (P07711 114-333): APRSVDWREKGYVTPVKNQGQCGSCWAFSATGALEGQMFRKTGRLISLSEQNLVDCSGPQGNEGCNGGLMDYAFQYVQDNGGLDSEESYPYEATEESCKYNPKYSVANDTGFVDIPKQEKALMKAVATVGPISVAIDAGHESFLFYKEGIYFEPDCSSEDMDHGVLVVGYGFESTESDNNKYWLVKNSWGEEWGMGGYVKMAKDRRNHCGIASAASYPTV

B1: B3-TMP: SerpinB3 variant with RCL residues 350 to 354 (P4 to P1′) replaced by IQFRV to inhibit TMPRSS2; SEQ ID No. 6 (protein)
chain: MNSLSEANTKFMFDLFQQFRKSKENNIFYSPISITSALGMVLLGAKDNTAQQIKKVLHFDQVTENTTGKAATYHVDRSGNVHHQFQKLLTEFNKSTDAYELKIANKLFGEKTYLFLQEYLDAIKKFYQTSVESVDFANAPEESRKKINSWVESQTNEKIKNLIPEGNIGSNTTLVLVNAIYFKGQWEKKFNKEDTKEEKFWPNKNTYKSIQMMRQYTSFHFASLEDVQAKVLEIPYKGKDLSMIVLLPNEIDGLQKLEEKLTAEKLMEWTSLQNMRETRVDLHLPRFKVEESYDLKDTLRTMGMVDIFNGDADLSGMTGSRGLVLSGVLHKAFVEVTEEGAEAAAATAVIQFRVSPTSTNEEFHCNHPFLFFIRQNKTNSILFYGRFSSP
Question: How did the CatL inhibition [1] turn out when B1 was run?
Answer: 81%

Question: And the “inhibition of pseudoparticle entry (in words)” value ([2]; 6.25 μM to 50 μM, A549-ACE2-TMPRSS2 cells)?
Answer: reduce SARS-CoV-2 (D614G) pseudoparticle entry

Question: What about the “inhibition of pseudoparticle entry” value ([2]; 12.5 μM, A549-ACE2-TMPRSS2 cells) of the same molecule?
Answer: 70%

Question: What about the “inhibition of pseudoparticle entry” value ([2]; 50 µM) of the same molecule?
Answer: 90%

Question: And the “inhibition of SARS-CoV-2 Omicron BA.5 infection (in words)” value [3]?
Answer: greater inhibitor for both viral strains than WT-SerpinB3; also recorded: inhibit Omicron BA.5 infection to a greater extent than the B3-WT

Question: What about the “selectivity for TMPRSS2 versus elastase, trypsin, chymotrypsin (in words)” value [4] of the same molecule?
Answer: better selectivity for TMPRSS2 than A1AT

Question: And the “second order inhibition rate constant k2 of TMPRSS2 inhibition” value [5]?
Answer: (9±1.1)×10^3 M^−1 s^−1

B2: B3-WT: Wild type recombinant SerpinB3 (SCCA-1), 44.5 kDa cross-class inhibitor of cysteine proteases including CatL; SEQ ID No. 5 (protein, listed as Homo sapiens)
chain: MNSLSEANTKFMFDLFQQFRKSKENNIFYSPISITSALGMVLLGAKDNTAQQIKKVLHFDQVTENTTGKAATYHVDRSGNVHHQFQKLLTEFNKSTDAYELKIANKLFGEKTYLFLQEYLDAIKKFYQTSVESVDFANAPEESRKKINSWVESQTNEKIKNLIPEGNIGSNTTLVLVNAIYFKGQWEKKFNKEDTKEEKFWPNKNTYKSIQMMRQYTSFHFASLEDVQAKVLEIPYKGKDLSMIVLLPNEIDGLQKLEEKLTAEKLMEWTSLQNMRETRVDLHLPRFKVEESYDLKDTLRTMGMVDIFNGDADLSGMTGSRGLVLSGVLHKAFVEVTEEGAEAAAATAVVGFGSSPTSTNEEFHCNHPFLFFIRQNKTNSILFYGRFSSP
Question: Which CatL inhibition [1] does the source give for B2 here?
Answer: 95%

Question: What about the “inhibition of SARS-CoV-2 Omicron BA.5 infection (in words)” value [3] of the same molecule?
Answer: reductions in SARS-CoV-2 infection
